Laboratory results reported in PMC5376962.

Target: Burkholderia pseudomallei N-type ATPase c-subunit (atpE), assembled into the c17 rotor ring, expressed alone in E. coli (Burkholderia pseudomallei)
Assay: cryo-EM structure

## Burkholderia pseudomallei N-type ATPase c-subunit (atpE), assembled into the c17 rotor ring, expressed alone in E. coli (natural protein)
  stoichiometry N: 17
